B1: ROR2-90 full length human IgG1 antibody (antibody, V domains shown)
VH: EVQLVESGPGLVKPSQTLSLTCTVSGGSISSGGYYWSWIRQHPGKGLEWIGYIYYSGSTYYNPSLKSRVTISVDTSKNQFSLKLSSVTAADTAMYYCARGGLYWTYSQDVWGQGTLVTVSS
VL: QPVLTQPPSASGTPGQRVTISCSGSSSNIGSDYVSWYQQLPGTAPKLLIYRNDQRPSGVPDRFSGSKSGTSASLAISGLRSEDEADYYCVAWDDSLSGYVFGSGTKVTVLG
notes: also called clone #90; antibody #90
B2: ROR2-27 full length human IgG1 antibody (antibody, V domains shown)
VH: QVQLVESGAEVKKPGESLKISCKASGYSFSNYWIGWVRQMPGKGLEWMGIIYPDDSDTRYSPSFQGQVTISADKSISTAYLQWYSLKVADTAKYYCVRPRGAFDIWGQGTTVTVSS
VL: QSVLTQPPSVSGAPGQRVTISCTGSSSNIGAGHAVHWYQQLPGTAPKLLIYDNANRPSGVPDRFSGSQSGTSASLAITGLQTGDEADYYCGTWDDSPSAYVFGTGTKVTVLG
notes: also called clone #27; clone #027 IgG1

Key:
[1] = molecular target: T1, human ROR2 expressed on the cell surface (human, UniProt Q01974 34-943); assay: flow cytometry, H69 cells (SCLC); parameters: unit not given here
T1 construct: Endogenous ROR2 of human tumour cell lines; also called cell surface ROR2; ROR2 on tumour cell lines
T1 sequence (Q01974 34-943 limits assumed): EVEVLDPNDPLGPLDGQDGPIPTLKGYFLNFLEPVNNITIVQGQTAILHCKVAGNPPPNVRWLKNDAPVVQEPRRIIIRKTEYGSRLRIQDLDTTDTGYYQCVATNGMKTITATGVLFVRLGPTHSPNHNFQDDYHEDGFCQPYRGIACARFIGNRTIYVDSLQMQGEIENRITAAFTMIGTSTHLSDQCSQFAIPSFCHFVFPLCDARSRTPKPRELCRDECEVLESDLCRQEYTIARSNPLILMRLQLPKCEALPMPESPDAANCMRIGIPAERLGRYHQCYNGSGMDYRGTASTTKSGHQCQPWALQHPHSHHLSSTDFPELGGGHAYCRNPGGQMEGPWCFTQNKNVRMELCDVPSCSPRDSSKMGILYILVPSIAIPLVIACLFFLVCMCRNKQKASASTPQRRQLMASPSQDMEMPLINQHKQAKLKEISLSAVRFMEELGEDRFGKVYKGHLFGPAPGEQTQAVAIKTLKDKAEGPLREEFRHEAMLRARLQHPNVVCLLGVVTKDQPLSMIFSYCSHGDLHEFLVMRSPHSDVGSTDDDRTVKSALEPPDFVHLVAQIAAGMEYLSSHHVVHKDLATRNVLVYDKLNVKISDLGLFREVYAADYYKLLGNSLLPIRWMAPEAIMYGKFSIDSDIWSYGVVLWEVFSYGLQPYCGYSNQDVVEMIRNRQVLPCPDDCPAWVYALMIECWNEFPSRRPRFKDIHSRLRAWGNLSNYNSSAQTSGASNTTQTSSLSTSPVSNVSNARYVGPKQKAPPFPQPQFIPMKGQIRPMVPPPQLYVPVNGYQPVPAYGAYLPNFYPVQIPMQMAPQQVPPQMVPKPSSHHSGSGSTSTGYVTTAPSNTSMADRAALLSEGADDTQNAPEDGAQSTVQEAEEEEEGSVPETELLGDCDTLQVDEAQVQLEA
Procedure: (§1) Human tumour cell lines were authenticated using short tandem repeat (STR) analysis. They were cultured in RPMI1640 (Cellgro) supplemented with 10% fetal bovine serum (FBS, Life Technologies) at 37° C. in a 5% CO₂ humidified incubator. They were harvested, washed in PBS and reacted with ROR2-IgG at 1 ug/10⁶ tumour cells on ice for an hour. #901-IgG was used as a negative control at the same dose. After washing, a secondary PE-conjugated goat anti-human IgG, Fcγ fragment specific (1:100, Jackson ImmunoResearch) was added for another 30 min incubation. Staining was analyzed on a FACSCalibur (BD Biosciences). ROR2 (full length) antibody binding towards multiple cancer cell lines were compared with Rituxan and Herceptin antibodies. The cancer cell lines were derived from breast cancer, colorectal cancer, mesothelioma, hepatocellular carcinoma, ovarian cancer, osteosarcoma, neuroblastoma, etc. ROR2 #90 antibody could recognize most of the tumour cells tested, and in some cases, the binding intensity was higher than Herceptin (see Tables 8 to 10).

[2] = molecular target: T1, human ROR2 expressed on the cell surface; assay: flow cytometry, HEP G2 cells (HCC); parameters: unit not given here
Procedure: as §1

[3] = molecular target: T1, human ROR2 expressed on the cell surface; assay: flow cytometry, TC32 cells (EW/PNET); parameters: unit not given here
Procedure: as §1

[4] = molecular target: T1, human ROR2 expressed on the cell surface; assay: flow cytometry, TC71 cells (EW/PNET); parameters: unit not given here
Procedure: as §1

[5] = molecular target: T1, human ROR2 expressed on the cell surface; assay: flow cytometry, M14 cells (melanoma); parameters: reference not given here
Procedure: as §1

[6] = molecular target: T1, human ROR2 expressed on the cell surface; assay: flow cytometry, OCM1 cells (melanoma); parameters: unit not given here
Procedure: as §1

[7] = molecular target: T1, human ROR2 expressed on the cell surface; assay: flow cytometry, CHP100 cells (EW/PNET); parameters: unit not given here
Procedure: as §1

[8] = molecular target: T1, human ROR2 expressed on the cell surface; assay: flow cytometry, JN DSRCT cells (DSRCT); parameters: unit not given here
Procedure: as §1

[9] = molecular target: T1, human ROR2 expressed on the cell surface; assay: flow cytometry, SKES-1 cells (EW/PNET); parameters: unit not given here
Procedure: as §1

[10] = molecular target: T1, human ROR2 expressed on the cell surface; assay: flow cytometry, HTB27 cells (breast CA); parameters: unit not given here
Procedure: as §1

[11] = molecular target: T1, human ROR2 expressed on the cell surface; assay: flow cytometry, HTB37-Caco2 cells (CRC); parameters: unit not given here
Procedure: as §1

[12] = molecular target: T1, human ROR2 expressed on the cell surface; assay: flow cytometry, SKBR3 cells (breast CA); parameters: reference not given here
Procedure: as §1

[13] = molecular target: T1, human ROR2 expressed on the cell surface; assay: flow cytometry, U251 LUC cells (glioma); parameters: unit not given here
Procedure: as §1

[14] = molecular target: T1, human ROR2 expressed on the cell surface; assay: flow cytometry, HTB132 cells (breast CA); parameters: unit not given here
Procedure: as §1

[15] = molecular target: T1, human ROR2 expressed on the cell surface; assay: flow cytometry, SKMEL-5 cells (melanoma); parameters: unit not given here
Procedure: as §1

[16] = molecular target: T1, human ROR2 expressed on the cell surface; assay: flow cytometry, U2OS cells (osteosarcoma); parameters: unit not given here
Procedure: as §1

[17] = molecular target: T1, human ROR2 expressed on the cell surface; assay: flow cytometry, NB5 cells (neuroblastoma); parameters: unit not given here
Procedure: as §1

[18] = molecular target: T1, human ROR2 expressed on the cell surface; assay: flow cytometry, MCF7-Luc cells (breast CA); parameters: unit not given here
Procedure: as §1

[19] = molecular target: T1, human ROR2 expressed on the cell surface; assay: flow cytometry, RG187 cells (osteosarcoma); parameters: unit not given here
Procedure: as §1

[20] = molecular target: T1, human ROR2 expressed on the cell surface; assay: flow cytometry, NMB7 cells (neuroblastoma); parameters: unit not given here
Procedure: as §1

[21] = molecular target: T1, human ROR2 expressed on the cell surface; assay: flow cytometry, LAN-1 cells (neuroblastoma); parameters: unit not given here
Procedure: as §1

[22] = molecular target: T1, human ROR2 expressed on the cell surface; assay: flow cytometry, SKNJB cells (neuroblastoma); parameters: unit not given here
Procedure: as §1

[23] = molecular target: T1, human ROR2 expressed on the cell surface; assay: flow cytometry, CRL1427 cells (osteosarcoma); parameters: unit not given here
Procedure: as §1

[24] = molecular target: T1, human ROR2 expressed on the cell surface; assay: flow cytometry, BE(2)S cells (neuroblastoma); parameters: unit not given here
Procedure: as §1

[25] = molecular target: T1, human ROR2 expressed on the cell surface; assay: flow cytometry, NCI-H2052 cells (mesothelioma); parameters: reference not given here
Procedure: as §1

[26] = molecular target: T1, human ROR2 expressed on the cell surface; assay: flow cytometry, HTB26 (MDA-MB-231) cells (breast CA); parameters: unit not given here
Procedure: as §1

[27] = molecular target: T2, human ROR2 extracellular domain (ROR2 ECD recombinant protein) (human, UniProt Q01974 34-403); assay: kinetic binding analysis, full length IgG1 on human ROR2-ECD
T2 construct: also called human ROR2-ECD; hROR2-ECD
T2 sequence (Q01974 34-403): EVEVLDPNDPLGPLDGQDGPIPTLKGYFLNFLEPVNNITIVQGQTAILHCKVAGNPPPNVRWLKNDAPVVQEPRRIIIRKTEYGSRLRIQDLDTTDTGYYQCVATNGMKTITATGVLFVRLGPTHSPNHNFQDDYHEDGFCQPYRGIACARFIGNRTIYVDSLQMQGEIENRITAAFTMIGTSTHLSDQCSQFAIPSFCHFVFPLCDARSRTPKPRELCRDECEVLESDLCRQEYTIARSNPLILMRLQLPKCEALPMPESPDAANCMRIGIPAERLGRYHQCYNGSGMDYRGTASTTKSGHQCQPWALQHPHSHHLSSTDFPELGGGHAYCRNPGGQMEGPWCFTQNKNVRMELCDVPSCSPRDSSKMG

Binder | binding intensity [1] | binding intensity [2] | binding intensity [3] | binding intensity [4] | binding intensity [5] | binding intensity [6] | binding intensity [7] | binding intensity [8] | binding intensity [9] | binding intensity [10] | binding intensity [11] | binding intensity [12] | binding intensity [13] | binding intensity [14] | binding intensity [15] | binding intensity [16] | binding intensity [17] | binding intensity [18] | binding intensity [19] | binding intensity [20] | also measured
B1 | 15 | 49 | 70 | 68 | 17 | 18 | 57 | 84 | 28 | 125 | 91 | 98 | 27 | 5 | 8 | 94 | 47 | 190 | 79 | 47 | binding intensity [21]: 48; binding intensity [22]: 254; binding intensity [23]: 45; binding intensity [24]: 40; binding intensity [25]: 101; binding intensity [26]: 19; Kd [27]: 0.163 nM; koff [27]: 0.000167 s⁻¹; kon [27]: 1.02e+06 M⁻¹ s⁻¹
B2 | 24 | 11 | 20 | 21 | 5 | 6 | 18 | 5 | 12 | 11 | 13 | 15 | 9 | 8 | 2 | 29 | 20 | 74 | 19 | 23 | binding intensity [21]: 28; binding intensity [22]: 141; binding intensity [23]: 11; binding intensity [24]: 21; binding intensity [25]: 46; binding intensity [26]: 7; Kd [27]: 0.715 nM; koff [27]: 0.000608 s⁻¹; kon [27]: 851000 M⁻¹ s⁻¹

Reference: patent US20180127503A1 (EUREKA THERAPEUTICS, published 2018)
